B1: human FLRT3 LRR domain (residues K29-D357) (domain or fragment, UniProt Q9NZU0 29-357, looked up)
chain: KSCPSVCRCDAGFIYCNDRFLTSIPTGIPEDATTLYLQNNQINNAGIPSDLKNLLKVERIYLYHNSLDEFPTNLPKYVKELHLQENNIRTITYDSLSKIPYLEELHLDDNSVSAVSIEEGAFRDSNYLRLLFLSRNHLSTIPWGLPRTIEELRLDDNRISTISSPSLQGLTSLKRLVLDGNLLNNHGLGDKVFFNLVNLTELSLVRNSLTAAPVNLPGTNLRKLYLQDNHINRVPPNAFSYLRQLYRLDMSNNNLSNLPQGIFDDLDNITQLILRNNPWYCGCKMKWVRDWLQSLPVKVNVRGLMCQAPEKVRGMAIKDLNAELFDCKD
modifications: N-linked glycosylation observed at N226

The series “SEC” concerns the molecule itself. Kind of series: SEC.
The target of series [1] is B1. Kind of series: flow cytometry on cells.
Series [2] has as its target B1. Description: BLI.

For the molecule B1, in the series “SEC”, the “stoichiometry N” value turned out to be 2.

B2: biotinylated human LPHN3 olfactomedin domain (residues V132-G392) (domain or fragment, UniProt Q9HAR2 132-392, looked up)
chain: VFLCPGLLKGVYQSEHLFESDHQSGAWCKDPLQASDKIYYMPWTPYRTDTLTEYSSKDDFIAGRPTTTYKLPHRVDGTGFVVYDGALFFNKERTRNIVKFDLRTRIKSGEAIIANANYHDTSPYRWGGKSDIDLAVDENGLWVIYATEQNNGKIVISQLNPYTLRIEGTWDTAYDKRSASNAFMICGILYVVKSVYEDDDNEATGNKIDYIYNTDQSKDSLVDVPFPNSYQYIAAVDYNPRDNLLYVWNNYHVVKYSLDFG
modifications: biotin (biotinylated; residue not stated)
In the case of B2, in series [1], the binding result is recorded as “binds”.

B3: human LPHN3 olfactomedin domain (residues V132-G392) (domain or fragment, UniProt Q9HAR2 132-392, looked up)
chain: VFLCPGLLKGVYQSEHLFESDHQSGAWCKDPLQASDKIYYMPWTPYRTDTLTEYSSKDDFIAGRPTTTYKLPHRVDGTGFVVYDGALFFNKERTRNIVKFDLRTRIKSGEAIIANANYHDTSPYRWGGKSDIDLAVDENGLWVIYATEQNNGKIVISQLNPYTLRIEGTWDTAYDKRSASNAFMICGILYVVKSVYEDDDNEATGNKIDYIYNTDQSKDSLVDVPFPNSYQYIAAVDYNPRDNLLYVWNNYHVVKYSLDFG
On to B3, for which, in series [2], the equilibrium dissociation constant (Kd) is 220 to 260 nM.

The values are drawn from paper PMC4851429 (Structure (London, England : 1993), 2015).
